Measurements from paper PMC9361855.

What was measured:
Factor I = Factor I (UniProt P05156); experiment: ELISA; details: CipA variants coated at 5 ng/µl, FI 10 ng/µl, anti-FI antibody 1:1,000, read off a plot
[1] = target: CipA (hexahistidine-tagged, lacking the N-terminal signal sequence, amino acid residues 19-369) (Acinetobacter baumannii); experiment: ELISA; CipA immobilised (5 µg/ml), increasing amounts of complement component (0 to 50 nM in the methods; 0 to 25 nM FI in the legend); dissociation constant approximated by non-linear regression, one-site specific binding model

Sequence of Factor I (P05156 19-335): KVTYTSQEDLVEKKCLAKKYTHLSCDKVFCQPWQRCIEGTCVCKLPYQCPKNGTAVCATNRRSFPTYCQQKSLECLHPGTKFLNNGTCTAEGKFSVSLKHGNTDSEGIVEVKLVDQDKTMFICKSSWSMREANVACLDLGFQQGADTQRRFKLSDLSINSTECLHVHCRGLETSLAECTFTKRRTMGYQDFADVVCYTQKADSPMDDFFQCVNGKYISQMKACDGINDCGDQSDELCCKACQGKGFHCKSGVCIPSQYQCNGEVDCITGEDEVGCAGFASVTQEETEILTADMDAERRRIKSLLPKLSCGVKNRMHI
Sequence of Factor I (P05156 340-583): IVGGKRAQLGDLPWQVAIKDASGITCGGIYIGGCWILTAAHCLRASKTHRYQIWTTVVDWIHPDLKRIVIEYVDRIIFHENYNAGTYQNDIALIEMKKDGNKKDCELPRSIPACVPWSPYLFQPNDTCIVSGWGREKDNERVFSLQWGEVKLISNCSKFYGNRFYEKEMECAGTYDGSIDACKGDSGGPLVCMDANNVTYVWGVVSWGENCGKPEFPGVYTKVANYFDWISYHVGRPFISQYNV

Substance	response (Absorbance at 490 nm) (Factor I; parent: est. 3.1)	response (Absorbance at 490 nm) (Factor I; parent: est. 2.8)	other results
CipA (hexahistidine-tagged, lacking the N-terminal signal sequence, amino acid residues 19-369) E360P	0.35		
Factor I (from UniProt P05156 19-335; P05156 340-583) (enzyme)			Kd [1]: 3 nM
CipA (hexahistidine-tagged, lacking the N-terminal signal sequence, amino acid residues 19-369) P367A		2.1	
CipA (hexahistidine-tagged, lacking the N-terminal signal sequence, amino acid residues 19-369) Q361A	3.1		
CipA (hexahistidine-tagged, lacking the N-terminal signal sequence, amino acid residues 19-369) L363del; V364del		2.7	
CipA (hexahistidine-tagged, lacking the N-terminal signal sequence, amino acid residues 19-369) K365A; K366A; K368A; K369A		2.7	
CipA (hexahistidine-tagged, lacking the N-terminal signal sequence, amino acid residues 19-369) E360A	2.8		
CipA (hexahistidine-tagged, lacking the N-terminal signal sequence, amino acid residues 19-369) E362A	2.9		
CipA (hexahistidine-tagged, lacking the N-terminal signal sequence, amino acid residues 19-369) V364del		1.9	
CipA (hexahistidine-tagged, lacking the N-terminal signal sequence, amino acid residues 19-369) L363del		2	
CipA (hexahistidine-tagged, lacking the N-terminal signal sequence, amino acid residues 19-369) P367del		2	
